Measured values as given in doi:10.1101/2020.09.01.276469.

How the values were obtained:
Experiment in all cases: BLI
[1] = target: TPX2 aa1-178Δ123 (TPX2 1-178 with the KKLK motif mutated) (Xenopus laevis) (UniProt Q6NUF4)
[2] = target: double-mutant TPX2 (DM-TPX2) (Xenopus laevis) (UniProt Q6NUF4)
[3] = target: triple-mutant TPX2 (TM-TPX2) (Xenopus laevis) (UniProt Q6NUF4)
[4] = target: TPX2 C-terminus (a.a. 480-716) (Xenopus laevis) (UniProt Q6NUF4)
TPX2 C-terminus (a.a. 480-716) (Xenopus laevis), sequence (Q6NUF4 480-716): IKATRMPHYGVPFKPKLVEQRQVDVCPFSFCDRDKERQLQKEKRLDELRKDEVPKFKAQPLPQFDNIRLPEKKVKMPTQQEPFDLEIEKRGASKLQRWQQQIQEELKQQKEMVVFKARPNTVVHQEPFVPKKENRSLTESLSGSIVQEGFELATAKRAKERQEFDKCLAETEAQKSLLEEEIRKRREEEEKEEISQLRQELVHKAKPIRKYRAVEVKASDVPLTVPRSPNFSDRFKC

importin-αΔIBB (importin-α without the importin-β binding domain) (domain or fragment), sequence (P52170 71-522, stated change not applied): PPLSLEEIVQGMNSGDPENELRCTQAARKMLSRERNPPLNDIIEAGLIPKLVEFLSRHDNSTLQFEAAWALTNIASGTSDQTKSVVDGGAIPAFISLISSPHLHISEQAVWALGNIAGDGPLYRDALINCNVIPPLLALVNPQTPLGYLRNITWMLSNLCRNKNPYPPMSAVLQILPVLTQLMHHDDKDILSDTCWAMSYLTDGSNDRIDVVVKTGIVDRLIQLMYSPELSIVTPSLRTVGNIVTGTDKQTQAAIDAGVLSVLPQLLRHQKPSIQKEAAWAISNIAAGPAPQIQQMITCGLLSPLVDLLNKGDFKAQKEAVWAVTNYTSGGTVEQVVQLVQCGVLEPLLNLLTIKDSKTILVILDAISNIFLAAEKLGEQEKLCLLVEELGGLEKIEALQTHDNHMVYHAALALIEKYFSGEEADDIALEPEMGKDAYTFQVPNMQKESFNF
importin-β, sequence (P52297 whole entry): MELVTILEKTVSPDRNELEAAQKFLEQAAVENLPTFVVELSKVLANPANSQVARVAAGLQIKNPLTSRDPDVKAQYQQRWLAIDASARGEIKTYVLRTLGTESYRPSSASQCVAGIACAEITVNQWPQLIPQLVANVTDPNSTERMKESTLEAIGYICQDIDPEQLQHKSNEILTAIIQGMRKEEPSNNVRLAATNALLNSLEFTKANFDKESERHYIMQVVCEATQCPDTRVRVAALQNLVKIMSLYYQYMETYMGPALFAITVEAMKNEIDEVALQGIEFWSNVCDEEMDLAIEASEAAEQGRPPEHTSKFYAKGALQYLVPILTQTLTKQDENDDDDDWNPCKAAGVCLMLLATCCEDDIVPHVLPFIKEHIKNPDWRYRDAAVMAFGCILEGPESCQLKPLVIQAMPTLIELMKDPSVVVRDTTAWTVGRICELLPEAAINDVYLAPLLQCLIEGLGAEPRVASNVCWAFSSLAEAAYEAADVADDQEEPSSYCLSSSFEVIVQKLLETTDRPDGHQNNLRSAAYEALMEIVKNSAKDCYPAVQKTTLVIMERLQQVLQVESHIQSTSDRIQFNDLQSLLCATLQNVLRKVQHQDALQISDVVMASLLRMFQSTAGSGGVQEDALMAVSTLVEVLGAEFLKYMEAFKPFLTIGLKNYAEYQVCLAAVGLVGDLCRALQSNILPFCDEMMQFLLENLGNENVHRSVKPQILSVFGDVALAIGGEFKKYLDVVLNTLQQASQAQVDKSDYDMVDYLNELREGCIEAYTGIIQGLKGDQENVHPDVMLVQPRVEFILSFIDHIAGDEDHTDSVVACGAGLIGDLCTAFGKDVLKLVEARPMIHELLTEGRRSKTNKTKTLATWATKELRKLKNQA

fold loss of binding against the wild type 1-178 TPX2 construct [1] | Kd [2] | Kd [3] | Kd [4] | Substance
10 fold | 45 nM | 410 nM |  | importin-αΔIBB (importin-α without the importin-β binding domain) (domain or fragment)
 |  |  | > 4000 nM | importin-β (from UniProt P52297 1-876) (natural protein)
